# Laboratory results taken from the DeepSol protein solubility set.
# Experiment: soluble on expression in E. coli; label from the status in PepcDB or PDB records
row,Sequence,soluble on expression in E. coli
1,MSVKEPEKFLASHIYNIDYQEDLNKCFANLCTNKKNTILLESAEIDTKDKLKSILVLNSALRIACIENKVFIKPLSENGKYALKAIQENIKKDVDYKYDNNQLVLTFEFIKDYQLSESQKLKKPSVFDALRIIKDSFEIYNEFSIFLAGLFAYDVVASFENIGKIKRKNKCPDYVFYLADTILVSDHQEQKTFIQVNSFGHQTITDLEDSVAAIKQNINNDIELKVEKFKNIEPKESINDRDFCIVVDKLKSHIIDGDIFQVVPSRSFFLPCQNSLEVYKELKRTNPSPYMFYMQDEDFILFGASPESALKYQKSTNQVEIYPIAGTRRRAKNSDGSINADLDSRIELELRLDAKENAEHMMLVDLARNDVARISKTGTRYVADLLKVDRYSHVMHLVSRVVGQLADDLDALHAYQASMNMGTLTGAPKIKAMQLISEVEKQTRGVYGGAIGYFNGYGDLDSCIVIRSAYVENGVAEIQAGAGVVLDSIPIAEADETRTKAQAVISAIKNVHGV,not soluble
2,MNDVQQAINSDDIPLTDELVVSYLQDNPEFFNRNNSLMTGLRLNDEQRGTVSLVERQQQQLRQKVYGLEDEITQLMSVANHNEQLFVLYSDLYLRLLDCQSAEELLDCLHQATTELLSLSSFKLWLVSGNNTEVAHHSLSTNDCAGVMQNRLTNDEYYFGRLQESEQTLIFSKPCLGSVVLIKLTHDEQAVGFLAIGSEDAHHFDPRMDTLLLNQFKRLVAKLLHQQLSMLEHHHHHH,soluble
3,MSIPEELWRRFQEGDPRALARALTLVESGHPAGRELLKRVRGKGRAKVVGVTGSPGAGKSTLTDRLILEARKRGERVAVLAVDPSSPFSGGAILGDRIRMMRHHQDPGVYIRSMASRGALGGLAGATVAALSLLEAFGFDRIFVETVGVGQSEVDIARVADTTLLVLTPAAGDAVQAFKAGVMEIADVFAVNKFDLPGGERIVQELKSALELSPPRPGGWRPPIHPTVAASGEGVEALFESLEAHHRHLVEHGLLEAHRLERARFEVESVIQEWGRQRTQGAGALVARVARGELTPEEAALALLGPGPEAEEGAL,soluble
4,MSLLREKAVPIRIPDQLPASDVLRNENIFVMSESRASTQEIRPLKVLLLNLMPKKIETETQFLRLLSNSPLQVDIELLRIDDRPSKNTPEEHLNTFYRQFELVKNRNFDGLIITGAPLGLVQFEDVAYWQHLQNIMAWAKAHVTSTLYICWAAQAGLKLLYNLPKRTREEKLSGVYYHDIHKPFHPLLRGFDDRFLAPHSRYADFDAEFLAEHTDLDILATSDVAGVYLAATKDKRNVFVTGHPEYDAYTLHGEYVRDLGEGLNPAIPVNYYPNDNPDNKPCASWRSHGHLLFANWLNYCVYQQTPYDLEKFSEANFTKDEEGHHHHHH,soluble
5,APPGPPASGPCADLQSAINAVTGGPIAFGNDGASLIPADYEILNRVADKLKACPDARVTINGYTDNTGSEGINIPLSAQRAKIVADYLVARGVAGDHIATVGLGSVNPIASNATPEGRAKNRRVEIVVN,soluble
6,MRFAVLGSGSQGNGTLIVSADTCVLVDCGFSLRETERRLLRLGVDPAQLSAILVTHEHADHVHGVGLLSRRYNLPVYLSQGTLRGMRKPVEVAGFVRGGESLQIGALRIDVIAVAHDAQEPTQFVFSDGQRRFGLLTDLGSYCAGVLDGYRGLDALMIEANHCRDRLARGYYPYFLKQRVGGDLGHLNNHQAASLVAELGWQDLQHLVLAHLSSKNNLPQLARQCFVDTLGCDPDWLQLADQDSGLDWRHIALEHHHHHH,not soluble
7,MEEFTWRVGGPQGGGIETAATLFARAVGKGGWWVATKREYHSNIMGRHSYLDVRLARKPVQAFRERVDFLVALDGETLARHLGEVREGGVVLYDPKVLELTLHKLPMLDHRVAEDLAKRLGQADPSLKEVLQAYAEAGVQPLPYPFEAVADRIGEALGVPSLKARRTLNTIAVAASLHLLSYPLEPLLQALALQFRGEVLELNRKVAEAVYREEAPRLPFRLEVLGPAPGRIYLTGAQAAALGKLAGGLRFQTYYPISPATDESVFLEAHTHLPGADVAVVQTEDEIAAVNMAVGAALAGAKAATATSGPGFSLMAEGLGFAGMIEAPLVVTLYQRGGPSTGLPTRTEQGDLMFAIRGGHGEYPRLVLASGDILDAFLDAQKALAWAWRYQTVVVHLLDKFLASLAQSLPKEALKVLSLDGEKRLSPREGFGPYQRYAPGEDGLSPFIPIGTPGGFYWMTSDEHDPLGHITEDVELRELQMEKRMEKLELARKEIPLEDQYTLFRDGEVLVLGWGTVKGTLLEALDHLEGVGYLHLRLLWPFPRIAPLLEGKTLVTVEHNYSGQLADLVQQETLKRVHHRVVKYNGRPITLEEAVEALKAVREGRAPERLVLRKGV,soluble
